In the supplement of paper PMC10065799, “High-throughput profiling of sequence recognition by tyrosine kinases and SH2 domains using bacterial peptide display” (eLife, 2023):

Tests used:
Grb2 SH2 = Grb2 SH2 (UniProt P62993); experiment: SH2 binding enrichment of the phosphorylated peptide, bacterial display (enrichment ratio); higher = better substrate or ligand; peptides without Tyr show the background
SHP2-C SH2 = experiment: as above
c-Src SH2 = experiment: as above
FGFR3 = FGFR3 (UniProt P22607); experiment: phosphorylation enrichment, bacterial display (enrichment ratio); higher = better substrate or ligand; peptides without Tyr show the background
Jak2 = Jak2 (UniProt O60674); experiment: as above
AncSZ = experiment: as above
MERTK = MERTK (UniProt Q12866); experiment: as above
FGFR1 = FGFR1 (UniProt P11362); experiment: as above
Fyn = Fyn (UniProt P06241); experiment: as above
Fer (mouse) = experiment: as above
EPHB1 = EPHB1 (UniProt P54762); experiment: as above
c-Abl (mouse) = experiment: as above
EPHB2 = EPHB2 (UniProt P29323); experiment: as above
c-Src = experiment: as above
Fes = Fes (UniProt P07332); experiment: as above
Hck = Hck (UniProt P08631); experiment: as above
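Wherever SH2 binding enrichment of the phosphorylated peptide, bacterial display is given: peptide library displayed on the E. coli surface as eCPX fusions, selected cells deep-sequenced, score is each peptide's frequency after selection divided by its frequency in the input.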
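Wherever phosphorylation enrichment, bacterial display is given: 11-residue human phosphosite peptides and single-mutation variants displayed on the E. coli surface, counted by deep sequencing, each peptide's frequency after selection divided by its frequency in the unselected input library; frequency after pTyr selection over input frequency; kinase dosed for 20-30% of maximal phosphorylation in three min.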

Chain of FGFR1 (P11362 whole entry, looked up): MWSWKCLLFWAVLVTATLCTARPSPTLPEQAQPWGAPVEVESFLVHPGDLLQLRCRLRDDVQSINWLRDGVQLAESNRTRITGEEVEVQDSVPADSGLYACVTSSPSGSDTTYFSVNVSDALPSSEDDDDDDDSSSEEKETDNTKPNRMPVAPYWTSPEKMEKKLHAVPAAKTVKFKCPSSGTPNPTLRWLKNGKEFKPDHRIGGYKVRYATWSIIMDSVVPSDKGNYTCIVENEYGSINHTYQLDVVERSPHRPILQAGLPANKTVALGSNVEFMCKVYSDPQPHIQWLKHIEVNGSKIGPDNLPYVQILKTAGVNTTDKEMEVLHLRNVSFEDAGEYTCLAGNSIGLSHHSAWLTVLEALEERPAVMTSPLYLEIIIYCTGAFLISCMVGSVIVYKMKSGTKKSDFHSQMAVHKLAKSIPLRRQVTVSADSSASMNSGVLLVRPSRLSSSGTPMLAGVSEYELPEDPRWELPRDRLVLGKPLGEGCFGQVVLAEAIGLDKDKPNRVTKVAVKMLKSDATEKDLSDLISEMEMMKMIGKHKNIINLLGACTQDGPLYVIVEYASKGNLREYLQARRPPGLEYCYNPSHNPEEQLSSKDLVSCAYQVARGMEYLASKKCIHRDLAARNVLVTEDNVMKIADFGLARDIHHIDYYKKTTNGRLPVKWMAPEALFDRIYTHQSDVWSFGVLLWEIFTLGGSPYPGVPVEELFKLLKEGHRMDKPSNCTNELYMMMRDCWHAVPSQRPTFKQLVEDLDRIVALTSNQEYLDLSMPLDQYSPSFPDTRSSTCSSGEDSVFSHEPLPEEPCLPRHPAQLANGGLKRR
Chain of EPHB2 (P29323 whole entry, looked up): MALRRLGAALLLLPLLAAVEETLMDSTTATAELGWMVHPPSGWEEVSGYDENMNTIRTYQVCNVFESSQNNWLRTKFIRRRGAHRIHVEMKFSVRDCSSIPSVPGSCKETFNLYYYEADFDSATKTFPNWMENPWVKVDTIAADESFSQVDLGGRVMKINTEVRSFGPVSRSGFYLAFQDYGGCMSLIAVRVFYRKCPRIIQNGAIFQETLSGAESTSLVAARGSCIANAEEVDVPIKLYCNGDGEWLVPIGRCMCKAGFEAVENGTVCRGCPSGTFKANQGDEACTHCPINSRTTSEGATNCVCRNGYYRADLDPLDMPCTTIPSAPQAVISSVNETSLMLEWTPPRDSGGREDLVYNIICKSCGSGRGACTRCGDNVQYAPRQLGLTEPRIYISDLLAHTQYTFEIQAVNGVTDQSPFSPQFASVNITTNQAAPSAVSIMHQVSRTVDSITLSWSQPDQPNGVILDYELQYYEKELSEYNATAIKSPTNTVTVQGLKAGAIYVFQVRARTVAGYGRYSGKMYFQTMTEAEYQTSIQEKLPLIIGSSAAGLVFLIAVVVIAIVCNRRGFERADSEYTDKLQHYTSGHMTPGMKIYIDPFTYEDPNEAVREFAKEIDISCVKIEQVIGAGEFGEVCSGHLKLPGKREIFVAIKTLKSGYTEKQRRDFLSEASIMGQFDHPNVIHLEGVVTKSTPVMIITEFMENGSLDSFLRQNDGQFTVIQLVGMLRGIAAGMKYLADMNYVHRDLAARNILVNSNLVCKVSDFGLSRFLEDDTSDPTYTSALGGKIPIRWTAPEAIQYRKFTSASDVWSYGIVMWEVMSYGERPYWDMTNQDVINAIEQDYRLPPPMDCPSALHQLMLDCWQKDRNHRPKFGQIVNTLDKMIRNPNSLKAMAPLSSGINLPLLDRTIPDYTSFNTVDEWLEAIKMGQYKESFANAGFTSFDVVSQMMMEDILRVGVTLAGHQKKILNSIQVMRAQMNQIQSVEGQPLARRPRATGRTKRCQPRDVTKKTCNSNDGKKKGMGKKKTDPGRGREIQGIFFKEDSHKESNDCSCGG
Chain of Hck (P08631 whole entry, looked up, the tested form may be a part): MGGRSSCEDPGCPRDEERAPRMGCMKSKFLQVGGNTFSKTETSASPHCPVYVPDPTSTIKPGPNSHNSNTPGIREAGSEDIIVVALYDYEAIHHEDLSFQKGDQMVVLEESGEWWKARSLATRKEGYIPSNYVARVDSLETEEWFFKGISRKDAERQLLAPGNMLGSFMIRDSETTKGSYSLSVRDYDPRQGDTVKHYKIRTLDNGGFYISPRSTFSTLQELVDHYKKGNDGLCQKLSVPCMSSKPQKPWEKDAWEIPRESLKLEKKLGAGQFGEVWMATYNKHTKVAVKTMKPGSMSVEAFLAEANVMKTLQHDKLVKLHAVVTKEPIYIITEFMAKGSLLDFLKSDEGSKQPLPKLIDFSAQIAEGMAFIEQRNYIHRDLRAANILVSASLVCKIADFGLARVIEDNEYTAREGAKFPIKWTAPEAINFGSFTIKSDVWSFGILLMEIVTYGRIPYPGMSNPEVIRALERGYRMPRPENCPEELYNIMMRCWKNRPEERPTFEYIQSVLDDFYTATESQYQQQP
Chain of MERTK (Q12866 whole entry, looked up): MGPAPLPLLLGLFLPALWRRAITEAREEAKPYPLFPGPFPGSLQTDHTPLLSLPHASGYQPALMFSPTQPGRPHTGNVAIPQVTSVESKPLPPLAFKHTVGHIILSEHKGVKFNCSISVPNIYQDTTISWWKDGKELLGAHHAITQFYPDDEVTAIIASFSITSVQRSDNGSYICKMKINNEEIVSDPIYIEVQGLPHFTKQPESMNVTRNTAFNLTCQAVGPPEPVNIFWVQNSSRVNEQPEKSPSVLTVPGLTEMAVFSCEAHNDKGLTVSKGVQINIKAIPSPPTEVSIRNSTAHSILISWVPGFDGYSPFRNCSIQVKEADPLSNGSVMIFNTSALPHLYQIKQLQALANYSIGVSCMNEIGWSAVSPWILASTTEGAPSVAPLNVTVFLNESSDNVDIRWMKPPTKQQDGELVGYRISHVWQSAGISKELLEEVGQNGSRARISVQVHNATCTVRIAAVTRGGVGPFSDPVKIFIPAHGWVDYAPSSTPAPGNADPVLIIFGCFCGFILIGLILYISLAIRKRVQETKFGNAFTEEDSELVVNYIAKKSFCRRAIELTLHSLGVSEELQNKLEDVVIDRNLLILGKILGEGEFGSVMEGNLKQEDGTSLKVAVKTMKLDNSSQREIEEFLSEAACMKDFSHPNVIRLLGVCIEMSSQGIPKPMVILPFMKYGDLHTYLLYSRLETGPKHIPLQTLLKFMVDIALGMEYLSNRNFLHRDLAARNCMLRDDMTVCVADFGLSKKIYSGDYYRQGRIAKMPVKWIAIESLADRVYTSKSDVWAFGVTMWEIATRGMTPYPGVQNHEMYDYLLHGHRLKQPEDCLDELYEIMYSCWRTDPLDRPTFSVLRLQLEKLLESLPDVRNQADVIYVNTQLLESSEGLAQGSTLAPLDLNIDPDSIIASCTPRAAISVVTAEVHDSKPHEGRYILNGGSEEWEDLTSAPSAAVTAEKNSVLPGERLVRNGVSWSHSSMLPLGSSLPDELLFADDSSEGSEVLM
Chain of Jak2 (O60674 whole entry, looked up): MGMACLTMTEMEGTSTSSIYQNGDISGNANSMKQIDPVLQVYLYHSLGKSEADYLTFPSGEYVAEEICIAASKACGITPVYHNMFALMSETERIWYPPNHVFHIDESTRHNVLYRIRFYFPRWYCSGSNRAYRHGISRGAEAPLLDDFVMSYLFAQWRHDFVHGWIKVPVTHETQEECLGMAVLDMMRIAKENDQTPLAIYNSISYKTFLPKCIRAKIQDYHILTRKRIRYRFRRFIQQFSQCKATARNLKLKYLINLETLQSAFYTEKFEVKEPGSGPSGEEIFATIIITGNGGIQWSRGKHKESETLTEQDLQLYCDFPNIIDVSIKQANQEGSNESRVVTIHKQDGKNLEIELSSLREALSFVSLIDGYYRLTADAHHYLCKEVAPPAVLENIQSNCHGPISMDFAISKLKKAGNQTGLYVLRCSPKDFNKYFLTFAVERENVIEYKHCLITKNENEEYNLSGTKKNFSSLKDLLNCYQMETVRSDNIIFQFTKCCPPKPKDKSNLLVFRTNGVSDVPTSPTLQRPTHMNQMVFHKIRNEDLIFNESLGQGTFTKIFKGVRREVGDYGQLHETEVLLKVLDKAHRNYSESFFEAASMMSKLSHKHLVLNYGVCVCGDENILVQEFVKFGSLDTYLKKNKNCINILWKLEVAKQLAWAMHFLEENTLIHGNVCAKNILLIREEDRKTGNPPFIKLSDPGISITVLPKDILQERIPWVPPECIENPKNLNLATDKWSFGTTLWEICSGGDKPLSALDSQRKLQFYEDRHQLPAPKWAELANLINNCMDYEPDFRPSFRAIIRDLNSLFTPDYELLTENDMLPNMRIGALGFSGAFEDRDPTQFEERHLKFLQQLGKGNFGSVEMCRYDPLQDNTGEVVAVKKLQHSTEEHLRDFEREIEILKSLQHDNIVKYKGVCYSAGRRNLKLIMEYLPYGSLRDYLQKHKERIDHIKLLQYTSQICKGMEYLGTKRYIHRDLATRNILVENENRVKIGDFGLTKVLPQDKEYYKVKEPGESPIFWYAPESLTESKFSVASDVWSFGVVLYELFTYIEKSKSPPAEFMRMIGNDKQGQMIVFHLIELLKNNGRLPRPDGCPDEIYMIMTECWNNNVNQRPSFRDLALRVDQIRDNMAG
Chain of Grb2 SH2 (P62993 whole entry, looked up): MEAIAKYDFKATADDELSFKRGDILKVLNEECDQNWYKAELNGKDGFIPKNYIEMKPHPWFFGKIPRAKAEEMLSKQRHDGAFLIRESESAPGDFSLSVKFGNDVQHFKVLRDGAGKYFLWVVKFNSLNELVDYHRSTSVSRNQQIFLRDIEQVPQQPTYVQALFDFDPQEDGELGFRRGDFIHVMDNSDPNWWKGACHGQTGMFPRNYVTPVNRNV

| Sequence | SH2 binding enrichment (Grb2 SH2) | SH2 binding enrichment (SHP2-C SH2) | SH2 binding enrichment (c-Src SH2) | phosphorylation enrichment (FGFR3) | phosphorylation enrichment (Jak2) | phosphorylation enrichment (AncSZ) | phosphorylation enrichment (MERTK) | phosphorylation enrichment (FGFR1) | phosphorylation enrichment (Fyn) | phosphorylation enrichment (Fer (mouse)) | phosphorylation enrichment (EPHB1) | phosphorylation enrichment (c-Abl (mouse)) | phosphorylation enrichment (EPHB2) | phosphorylation enrichment (c-Src) | phosphorylation enrichment (Fes) | phosphorylation enrichment (Hck) |
| --- | --- | --- | --- | --- | --- | --- | --- | --- | --- | --- | --- | --- | --- | --- | --- | --- |
| FIIFIYAMKKK [SLCO1B1_Y645_L643F_YF] | 0.884 | 1.4 | 0.758 | 0.578 | 2.04 | 1.42 | 1.09 | 0.461 | 0.848 | 0.72 | 0.709 | 1.52 | 0.541 | 1.65 | 1.23 | 1.45 |
| FKTPTYPFLLP [PLD2_Y578_YF] | 0.971 | 0.745 | 0.657 | 0.704 | 0.815 | 0.641 | 0.588 | 0.652 | 0.413 | 0.362 | 0.74 | 0.833 | 0.422 | 0.552 | 0.693 | 0.43 |
| FLENFYDLEKD [MMP3_Y42_K45E_YF] | 0.978 | 0.907 | 0.677 | 0.679 | 1.21 | 1.33 | 0.516 | 0.504 | 4.33 | 0.433 | 0.531 | 0.764 | 0.546 | 2.23 | 1.34 | 1.39 |
| FQKNIYSEELR [LMNA_Y211] | 1.02 | 1.5 | 0.591 | 1.2 | 1.04 | 1.01 | 5.8 | 0.801 | 0.965 | 0.516 | 0.84 | 1.04 | 0.728 | 1.81 | 1.24 | 1.07 |
| FQLENYCNGGG [INS_Y108_YF] | 1.29 | 0.674 | 1.18 | 0.72 | 2.44 | 1.34 | 0.45 | 0.601 | 0.878 | 0.364 | 0.677 | 1.76 | 0.458 | 0.736 | 1.41 | 0.619 |
| FQVRRYDCDCD [CRYGS_Y21_G18V] | 0.921 | 0.854 | 0.891 | 0.758 | 1.32 | 1.19 | 0.553 | 0.557 | 0.563 | 0.497 | 0.583 | 0.788 | 0.592 | 0.622 | 1.32 | 0.498 |
| FRIDHYLGKEM [G6PD_Y202_YF] | 0.932 | 0.607 | 0.625 | 0.671 | 0.675 | 0.808 | 0.371 | 0.455 | 0.427 | 0.41 | 0.448 | 0.54 | 0.41 | 0.32 | 1.63 | 0.49 |
| FRRITYHNWRH [PDE6B_Y556_YF] | 0.475 | 0.456 | 0.399 | 0.458 | 0.627 | 0.785 | 0.518 | 0.432 | 0.593 | 0.571 | 0.309 | 0.577 | 0.515 | 0.535 | 0.635 | 0.527 |
| FSEVRYMKEPF [HIPK4_Y170_V171M_YF] | 0.863 | 0.646 | 0.547 | 0.48 | 0.741 | 0.677 | 0.32 | 0.451 | 0.379 | 0.36 | 0.473 | 0.66 | 0.459 | 0.388 | 0.821 | 0.438 |
| FSKQIYKGMVA [PCDH15_Y931_R929Q] | 0.879 | 0.654 | 0.471 | 0.432 | 0.472 | 0.441 | 0.346 | 0.337 | 0.502 | 0.331 | 0.351 | 0.42 | 0.342 | 0.365 | 0.479 | 0.384 |
| FSKTQYNQVPS [CXADR_Y318_YF] | 0.962 | 1.03 | 0.56 | 0.556 | 1.15 | 0.801 | 0.697 | 0.577 | 0.507 | 0.551 | 0.424 | 0.892 | 0.858 | 0.613 | 0.85 | 0.598 |
| FSMGCYEIFLG [HMGCL_Y198_S201Y_YF] | 0.938 | 0.706 | 0.557 | 1.35 | 1.51 | 2.87 | 4.33 | 0.95 | 5.89 | 3.74 | 2.01 | 1.28 | 2.07 | 6.25 | 1.8 | 3.21 |
| FVSLIYTNFEA [GSTP1_Y109_I105V_YF] | 1.35 | 1.15 | 0.8 | 1.05 | 1.18 | 1.78 | 5.37 | 0.962 | 5.96 | 3.18 | 1.13 | 2.22 | 0.91 | 5.94 | 1.46 | 3.31 |
| FVSSFYHAFSG [ACTN4_Y265_YF] | 1.33 | 1.07 | 0.95 | 1.34 | 1.19 | 0.999 | 8.71 | 1.2 | 2.32 | 0.522 | 1.51 | 2.01 | 0.896 | 4.01 | 1.3 | 2.6 |
| FYRNVYHLASV [RBL1_Y796_K794N] | 0.745 | 0.699 | 2 | 0.556 | 0.484 | 0.728 | 0.371 | 0.464 | 1.93 | 0.417 | 0.611 | 0.429 | 0.587 | 1 | 0.635 | 0.648 |
| GAAMLYYPSVS [GPR143_Y177] | 0.776 | 0.608 | 0.765 | 3.51 | 2.6 | 0.763 | 4.88 | 4.07 | 0.747 | 0.63 | 1.5 | 0.941 | 1.66 | 1.11 | 0.783 | 1.46 |
| GACGGYCSVLG [RAB18_Y202] | 0.875 | 2.48 | 8.18 | 0.401 | 0.522 | 0.533 | 0.525 | 0.435 | 0.473 | 0.441 | 0.358 | 0.461 | 0.352 | 0.509 | 0.77 | 0.392 |

| Sequence | SH2 binding enrichment (Grb2 SH2) | SH2 binding enrichment (SHP2-C SH2) | SH2 binding enrichment (c-Src SH2) | phosphorylation enrichment (FGFR3) | phosphorylation enrichment (Jak2) | phosphorylation enrichment (AncSZ) | phosphorylation enrichment (MERTK) | phosphorylation enrichment (FGFR1) | phosphorylation enrichment (Fyn) | phosphorylation enrichment (Fer (mouse)) | phosphorylation enrichment (EPHB1) | phosphorylation enrichment (c-Abl (mouse)) | phosphorylation enrichment (EPHB2) | phosphorylation enrichment (c-Src) | phosphorylation enrichment (Fes) | phosphorylation enrichment (Hck) |
| --- | --- | --- | --- | --- | --- | --- | --- | --- | --- | --- | --- | --- | --- | --- | --- | --- |
| GADAIYDHVNE [UQCR10_Y44_I47V] | 0.79 | 0.648 | 0.523 | 0.62 | 0.773 | 1.09 | 2.02 | 0.456 | 4.52 | 3.42 | 1.34 | 0.8 | 1.82 | 3.77 | 1.08 | 6.29 |
| GCAGKYIAMVM [CYP19A1_Y441] | 0.875 | 0.56 | 0.603 | 0.702 | 0.889 | 1 | 0.569 | 0.44 | 0.461 | 0.513 | 0.548 | 0.712 | 0.474 | 0.414 | 1.07 | 0.439 |
| GCLSKYSGVFS [TUBGCP6_Y1624_V1621L] | 1.04 | 1.07 | 0.723 | 0.565 | 1.19 | 0.778 | 0.46 | 0.425 | 0.51 | 0.514 | 0.52 | 0.673 | 0.543 | 0.509 | 1.01 | 0.542 |
| GDYLSYREFHL [ERBIN_Y1107_S1112L] | 0.84 | 0.689 | 0.491 | 3.96 | 1.53 | 1.8 | 0.478 | 5.4 | 3.1 | 0.79 | 16.4 | 15.7 | 22.7 | 2.46 | 0.809 | 2.45 |
| GEDLSYGDVPP [IRS1_Y151] | 0.806 | 0.732 | 0.529 | 0.84 | 0.995 | 1.22 | 0.463 | 0.588 | 0.639 | 0.709 | 0.624 | 0.765 | 0.534 | 0.482 | 1.28 | 0.556 |
| GGDGSYVSVPS [TNNI3K_Y425] | 0.69 | 0.728 | 1.83 | 0.592 | 0.495 | 0.564 | 0.338 | 0.419 | 0.443 | 0.415 | 0.382 | 0.487 | 0.431 | 0.347 | 0.565 | 0.412 |
| GGKYSYLKVGH [GRM3_Y480] | 1.23 | 1.29 | 1.79 | 0.536 | 0.604 | 0.678 | 0.513 | 0.404 | 0.497 | 0.503 | 0.344 | 0.666 | 0.394 | 0.4 | 0.616 | 0.388 |
| GGRIDYIAGLD [APRT_Y60] | 0.789 | 0.728 | 0.498 | 0.545 | 0.708 | 0.898 | 0.46 | 0.447 | 0.409 | 0.521 | 0.85 | 0.582 | 0.417 | 0.422 | 0.829 | 0.52 |
| GHLYANDWISI [BEST1_Y227_Y227N] | 24.5 | 3.5 | 18.4 | 0.674 | 0.878 | 0.819 | 3.32 | 0.609 | 0.734 | 0.527 | 0.778 | 0.587 | 0.619 | 0.683 | 0.871 | 0.575 |
| GIFKDYFRFNF [PLA2G2D_Y85_S80G_YF] | 1.82 | 1.74 | 1.23 | 2.94 | 3.79 | 1.16 | 0.56 | 4.19 | 0.501 | 0.507 | 0.57 | 0.897 | 0.47 | 0.622 | 1.18 | 0.579 |
| GIKAAYEAELG [LMNA_Y81] | 0.875 | 0.727 | 0.514 | 0.496 | 0.691 | 0.713 | 0.404 | 0.502 | 0.597 | 0.446 | 0.531 | 0.704 | 0.507 | 0.392 | 0.797 | 0.438 |
| GISDEYHVIQH [GCDH_Y398_R402Q] | 0.804 | 0.567 | 0.816 | 3.78 | 0.883 | 1.64 | 0.496 | 6.93 | 0.752 | 0.447 | 0.554 | 0.641 | 0.526 | 0.898 | 0.928 | 0.846 |
| GIVEDYRPPFC [ACVRL1_Y421_Y426C] | 0.887 | 0.713 | 0.569 | 0.599 | 0.883 | 0.994 | 0.451 | 0.598 | 0.492 | 0.437 | 0.511 | 0.782 | 0.532 | 0.517 | 1.01 | 0.406 |
| GKSHIYFWTLD [EML2_Y230_E235D] | 0.703 | 0.712 | 0.387 | 1.1 | 1.11 | 1.17 | 0.778 | 1.07 | 0.514 | 0.508 | 0.622 | 0.847 | 0.523 | 0.572 | 1.21 | 0.521 |
| GKVADYIPQLP [GLS_Y249_A254P] | 0.724 | 0.634 | 0.448 | 0.634 | 0.892 | 0.796 | 0.455 | 0.57 | 0.484 | 0.495 | 0.468 | 0.795 | 0.49 | 0.484 | 0.866 | 0.448 |
| GLAELYEFKKK [CKAP5_Y1854_YF] | 2.2 | 0.864 | 0.533 | 0.48 | 0.619 | 0.534 | 0.381 | 0.487 | 0.554 | 0.43 | 0.307 | 0.451 | 0.348 | 0.665 | 0.705 | 0.559 |
